Measured values reported in patent publication US10918733B2, “Lipopeptide- and lipoprotein-conjugates and its use” (HELMHOLTZ-ZENTRUM FUER INFEKTIONSFORSCHUNG GMBH, priority 2009, dated 2021).

Experiments:
[1] = system: Ova-specific CD4+ T cells; test: Proliferation of CFSE-stained T cells co-cultured with treated DC: CD4+ T cells; format: cell-based, OT2-tg mice; settings: DC incubated with 10 μg/mL for 24 h, co-culture 4 days
Experimental: (§1) T cell-mediated immune responses were investigated 96 h by measuring the proliferation of cells recovered from spleens after restimulation with BPPcysOva^mPEG. Non-Ag restimulated spleen cells were chosen as negative controls (FIG. 3). […] Taking into consideration that the BPPcysOva^mPEG has a promising effect on DC activation and maturation, next the capacity of these APC to stimulate the proliferation of antigen-specific CD8+ and CD4+ T cells was evaluated. Concentrations below 10^−8 M of BPPcysOva^mPEG were still able to induce an antigen specific proliferation of CD4+ T cells shown by the reduction of CFSE+ cells (FIGS. 4A-E).
(§2) FIG. 4: Proliferation of CD8+, CD4+ and regulatory T cells. DC were generated from bone marrow of C57BL/6 mice and incubated with 10 μg/mL of B) Ova C) Ova peptides, D) Ova in the presence of BPPcysMPEG and E) BPPcysOva^mPEG alone (A) Control) for 24 h. The following day, CD4+ T cells from spleens of OT2-tg animals or CD8+ T cells of OT1-tg animals were isolated. After staining with CFSE, CD8+, CD4+ T cells were co-cultured with adjuvant-treated DCs for 4 days. The decrease of CFSE-FITC expression due to cell division of CD8+ or CD4+ T cells were analysed by flow cytometric analysis. One representative experiment out of two is shown.

[2] = system: IFNgamma, IL-2, IL-4 and IL-17-secreting cells; test: ELISPOT of cytokine-secreting spleen cells in immunized mice; format: in vivo
Experimental: (§3) Experimental protocol: Spleens were removed and pooled for analysis of cellular immune responses. Cells were grown in RPMI 1640 supplemented with 10% fetal calf serum, 100 U/ml of penicillin, 50 μg/ml of streptomycin, 5×10^−5 M 2-mercaptoethanol and 1 mM L-glutamine (GIBCO BRL, Karlsruhe, Germany) and maintained at 37° C. in a humidified 5% CO2 atmosphere. Lymph node and spleen cell suspensions were adjusted to 5×10^6 cells/ml in complete medium, cells were seeded with 100 μl per well in a flat-bottomed 96-well microtiter plate (Nunc) and plates were incubated for 4 days in the presence of different concentrations of soluble Ova. Each concentration was tested in triplicates.
FIG. 7: Detection of IFNgamma, IL-2, IL-4 and IL-17-secreting cells in immunized mice. Spleen cells (1×10^6 and 5×10^5 cells/well) recovered from animals vaccinated by the (A) i.n. or (B) s.c. route were incubated in the presence of either the Ova protein (for IL2 and IL4) or a Ova peptide (TPHPARIGL) encompassing its immunodominant MHC class I-restricted epitope (for IFNgamma). Then, the numbers of IFNgamma, IL2, IL4 and IL-17-producing cells was determined by ELISPOT. Results are presented as spot forming units per 10^6 cells, which were subtracted from the values obtained from non-stimulated cells. The SEM of triplicates is indicated by vertical lines.

[3] = system: Ova-specific CD8+ T cells; test: Proliferation of CFSE-stained T cells co-cultured with treated DC: CD8+ T cells; format: cell-based, OT1-tg mice; settings: DC incubated with 10 μg/mL for 24 h, co-culture 4 days
Experimental: as §1, §2

[4] = system: peritoneal macrophages from C3H/HeJ mice; test: Nitrogen monoxide release assay (macrophage activation); format: cell-based; settings: with rIFN-γ, 45-48 hours; compared with the known BPPcysMPEG
Experimental: Experimental protocol: In brief, peritoneal macrophages from C3H/HeJ mice were used as the macrophage source. They were cultured in 96-well microtiter plates and stimulated simultaneously with rIFN-γ and a serial dilution of macrophage activator. Insofar as necessary, the macrophage activators were dissolved in 25 mM octylglucoside in the first dilution step and then diluted further with medium (i.e. R-Malp-2). After an incubating time of 45-48 hours, the nitrate was reduced with nitrate reductase and the starting substance nitrogen monoxide was determined, as the sum of nitrate and nitrite, using Griess' reagent. 1 unit (U)/ml is defined as the dilution at which half-maximal stimulation takes place.
FIG. 2: Nitrogen monoxide release assay. Peritoneal macrophages from C3H/HeJ mice were used as the macrophage source. They were cultured in 96-well microtiter plates and stimulated simultaneously with rIFN-γ and a serial dilution of macrophage activator. After an incubating time of 45-48 hours, the nitrate was reduced with nitrate reductase and the starting substance nitrogen monoxide was determined, as the sum of nitrate and nitrite, using Griess' reagent.

[5] = system: spleen cells; test: Proliferation of spleen cells of immunized mice after in vitro restimulation with Ova, day 42 (Example 5); format: in vivo; settings: s.c., restimulation with 0.1 up to 40 μg/ml Ova
Experimental: as §3, with “of” for “of soluble”, “triplicates. During the final 18 h of culture, 1 μCi of [^3H]thymidine (Amersham International, Freiburg, Germany) was added to each well. Cells were then harvested on paper filters (Filtermat A; Wallac, Freiburg, Germany) by using a cell harvester (Inotech, Wohlen, Switzerland), and the amount of incorporated [^3H]thymidine into the DNA of proliferating cells was determined by a β-scintillation counter (Wallac 1450, Micro-Trilux). The results are expressed as the arithmetic mean of [^3H]thymidine uptake in cpm.” for “triplicates.”
T cell-mediated immune responses were investigated at day 42 by measuring the proliferation of cells recovered from spleens after in vitro restimulation with Ova. […]

B1: Ova: model antigen ovalbumin (Sigma Chemie) (protein, UniProt P01012 2-386, looked up)
Ovalbumin: GSIGAASMEFCFDVFKELKVHHANENIFYCPIAIMSALAMVYLGAKDSTRTQINKVVRFDKLPGFGDSIEAQCGTSVNVHSSLRDILNQITKPNDVYSFSLASRLYAEERYPILPEYLQCVKELYRGGLEPINFQTAADQARELINSWVESQTNGIIRNVLQPSSVDSQTAMVLVNAIVFKGLWEKAFKDEDTQAMPFRVTEQESKPVQMMYQIGLFRVASMASEKMKILELPFASGTMSMLVLLPDEVSGLEQLESIINFEKLTEWTSSNVMEERKIKVYLPRMKMEEKYNLTSVLMAMGITDVFSSSANLSGISSAESLKISQAVHAAHAEINEAGREVVGSAEAGVDAASVSEEFRADHPFLFCIKHIATNAVLFFGRCVSP
stimulation of proliferation of Ova-specific CD4+ T cells by treated DC [1]: weak stimulation | IFNγ producing cells after i.n. administration [2]: narrowly detectable | stimulation of proliferation of Ova-specific CD8+ T cells by treated DC [3]: very efficiently | potential for activating macrophages (NO secretion) [4]: no potency | proliferative response of spleen cells, s.c. immunization [5]: significant proliferative response
